Test results from patent US20190071490A1 (BETH ISRAEL DEACONESS MEDICAL CENTER, published 2019).
Numbering of substitutions follows the chain as printed. Numbers in names are those of the source. Values belong to the binder of their own block, whether it stands above or below them.

Tests used:
human α-CGRP 1-37 (WT) = molecular target: T1, human α-CGRP 1-37 (WT) (human, C-terminal amide; N-terminal biotin when captured on the SA chip; 125I-labelled in the radioligand assay); assay: Biacore, 37°C, Fab over CGRP on SA chip
T1 construct: also called α-human
T1 peptide: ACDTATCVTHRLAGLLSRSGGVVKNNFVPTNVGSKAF
Experimental: (§1) Biacore assay for affinity determination. […] All Biacore assays were conducted in HBS-EP running buffer (10 mM HEPES pH 7.4, 150 mM NaCl, 3 mM EDTA, 0.005% v/v polysorbate P20). CGRP surfaces were prepared by diluting the N-biotinylated CGRP to a concentration of less than 0.001 mg/mL into HBS-EP buffer and injecting it across the SA sensor chip using variable contact times. […] Samples were typically injected for 1 minute at 100 μL/min and dissociation times of at least 10 minutes were allowed. […] An entire titration series (typically generated in duplicate) was fit globally to a 1:1 Langmuir binding model using the BIAevaluation program. This returned a unique pair of association and dissociation kinetic rate constants (respectively, kₒₙ and koff) for each binding interaction, whose ratio gave the equilibrium dissociation constant (KD=koff/kₒₙ). […]

rat α-CGRP (1-37) = molecular target: T2, rat α-CGRP (1-37) (rat, C-terminal amide; N-terminal biotin when captured on the SA chip); assay: Biacore, 37°C, Fab over CGRP on SA chip
T2 construct: also called rat α (1-37); α-rat
T2 peptide: T1 peptide with A1S, D3N, N25D, K35E
Experimental: as §1

Kd (human α-CGRP 1-37 (WT)): 1.31 nM
koff (human α-CGRP 1-37 (WT)): 0.00021 s⁻¹
Kd (rat α-CGRP (1-37)): 252 nM
koff (rat α-CGRP (1-37)): 0.00453 s⁻¹
B2: G1 variant M41 Fab (Fab, V domains shown)
VH: EVQLVESGGGLVQPGGSLRLSCAASGFTFSNYWISWVRQAPGKGLEWVAEIRSKSDNSATHYADAVKGRFTISRDNAKNSLYLQMNSLRAEDTAVYYCTVYFDYGLAIQNYWGQGTLVTVSS
VL: EIVLTQSPATLSLSPGERATLSCKASKNVTTYVSWYQQKPGQAPRLLIYAASNRYTGIPARFSGSGSGTDFTLTISSLEPEDFAVYYCSQSYNYPYTFGQGTKLEIK
notes: Fab; constant domains as m1

Kd (human α-CGRP 1-37 (WT)): 2.66 nM
koff (human α-CGRP 1-37 (WT)): 0.000425 s⁻¹
Kd (rat α-CGRP (1-37)): 553 nM
koff (rat α-CGRP (1-37)): 0.00995 s⁻¹
B6: G1 variant M39 Fab (Fab, V domains shown)
VH: B2 VH with K54E, S58Y, D64E
VL: B2 VL
notes: Fab; constant domains as m1

Kd (human α-CGRP 1-37 (WT)): 3.72 nM
koff (human α-CGRP 1-37 (WT)): 0.000595 s⁻¹
Kd (rat α-CGRP (1-37)): 822 nM
koff (rat α-CGRP (1-37)): 0.0148 s⁻¹
B8: G1 variant M49 Fab (Fab, V domains shown)
VH: B2 VH with S58Y, H61F, D64E
VL: B2 VL
notes: Fab; constant domains as m1

Kd (human α-CGRP 1-37 (WT)): 2.08 nM
koff (human α-CGRP 1-37 (WT)): 0.000332 s⁻¹
Kd (rat α-CGRP (1-37)): 457 nM
koff (rat α-CGRP (1-37)): 0.00823 s⁻¹
B10: G1 variant M47 Fab (Fab, V domains shown)
VH: B2 VH with S58G, D64E
VL: B2 VL
notes: Fab; constant domains as m1

Kd (human α-CGRP 1-37 (WT)): 2.54 nM
koff (human α-CGRP 1-37 (WT)): 0.000406 s⁻¹
Kd (rat α-CGRP (1-37)): 294 nM
koff (rat α-CGRP (1-37)): 0.0053 s⁻¹
B12: G1 variant M50 Fab (Fab, V domains shown)
VH: B2 VH with N57R, D64E
VL: B2 VL
notes: Fab; constant domains as m1

Kd (human α-CGRP 1-37 (WT)): 8 nM
koff (human α-CGRP 1-37 (WT)): 0.00128 s⁻¹
Kd (rat α-CGRP (1-37)): 20000 nM
koff (rat α-CGRP (1-37)): 0.36 s⁻¹
B13: G1 variant M40 Fab (Fab, V domains shown)
VH: B2 VH with N57L, D64E
VL: B2 VL
notes: Fab; constant domains as m1

Kd (human α-CGRP 1-37 (WT)): 2.34 nM
koff (human α-CGRP 1-37 (WT)): 0.000374 s⁻¹
Kd (rat α-CGRP (1-37)): 106 nM
koff (rat α-CGRP (1-37)): 0.00191 s⁻¹
B14: G1 variant M53 Fab (Fab, V domains shown)
VH: B2 VH with S58G, D64E
VL: B2 VL with A50G, T56I
notes: Fab; constant domains as m1; printed L561 read as L56I

Kd (human α-CGRP 1-37 (WT)): 3.37 nM
koff (human α-CGRP 1-37 (WT)): 0.000539 s⁻¹
Kd (rat α-CGRP (1-37)): 163 nM
koff (rat α-CGRP (1-37)): 0.00294 s⁻¹
B15: G1 variant M46 Fab (Fab, V domains shown)
VH: B2 VH with S58E, H61F, D64E
VL: B2 VL
notes: Fab; constant domains as m1

The remaining lines, values behind:

B1: G1 variant M56 Fab (Fab, V domains shown)
VH: B2 VH with H61F, D64E
VL: B2 VL with T30D, A50G, T56S
notes: Fab; constant domains as m1
Kd (human α-CGRP 1-37 (WT)): 2.99 nM
koff (human α-CGRP 1-37 (WT)): 0.000479 s⁻¹
Kd (rat α-CGRP (1-37)): 519 nM
koff (rat α-CGRP (1-37)): 0.00935 s⁻¹

B3: G1 variant M38 Fab (Fab, V domains shown)
VH: B2 VH with K54E, N57A, D64E
VL: B2 VL with T30W, A50G, T56L
notes: Fab; constant domains as m1
Kd (human α-CGRP 1-37 (WT)): 1.36 nM
koff (human α-CGRP 1-37 (WT)): 0.000218 s⁻¹
Kd (rat α-CGRP (1-37)): 284 nM
koff (rat α-CGRP (1-37)): 0.00511 s⁻¹

B4: G1 variant M64 Fab (Fab, V domains shown)
VH: B2 VH with S58V, D64E
VL: B2 VL with T30G, T56L
notes: Fab; constant domains as m1
Kd (human α-CGRP 1-37 (WT)): 8.25 nM
koff (human α-CGRP 1-37 (WT)): 0.00132 s⁻¹
Kd (rat α-CGRP (1-37)): 1300 nM
koff (rat α-CGRP (1-37)): 0.0234 s⁻¹

B5: G1 variant M37 Fab (Fab, V domains shown)
VH: B2 VH with K54E, N57G, D64E
VL: B2 VL with T30S, A50G, T56L
notes: Fab; constant domains as m1
Kd (human α-CGRP 1-37 (WT)): 1.41 nM
koff (human α-CGRP 1-37 (WT)): 0.000226 s⁻¹
Kd (rat α-CGRP (1-37)): 80.6 nM
koff (rat α-CGRP (1-37)): 0.00145 s⁻¹

B7: G1 variant M63 Fab (Fab, V domains shown)
VH: B2 VH with S58T, D64E
VL: B2 VL with T30G, T56L
notes: Fab; constant domains as m1
Kd (human α-CGRP 1-37 (WT)): 9.38 nM
koff (human α-CGRP 1-37 (WT)): 0.0015 s⁻¹
Kd (rat α-CGRP (1-37)): 147 nM
koff (rat α-CGRP (1-37)): 0.00265 s⁻¹

B9: G1 variant M61 Fab (Fab, V domains shown)
VH: B2 VH with K54Q, H61F, D64E
VL: B2 VL with T30G, A50G, A51H, T56L
notes: Fab; constant domains as m1
Kd (human α-CGRP 1-37 (WT)): 2.87 nM
koff (human α-CGRP 1-37 (WT)): 0.000459 s⁻¹
Kd (rat α-CGRP (1-37)): 289 nM
koff (rat α-CGRP (1-37)): 0.00521 s⁻¹

B11: G1 variant M57 Fab (Fab, V domains shown)
VH: B2 VH with S58E, D64E
VL: B2 VL with T30D, A50G, T56S
notes: Fab; constant domains as m1
Kd (human α-CGRP 1-37 (WT)): 3.08 nM
koff (human α-CGRP 1-37 (WT)): 0.000322 s⁻¹
Kd (rat α-CGRP (1-37)): 1200 nM
koff (rat α-CGRP (1-37)): 0.0104 s⁻¹

B16: G1 variant M60 Fab (Fab, V domains shown)
VH: B2 VH with S58R, H61F, D64E
VL: B2 VL with T30D, A50G, T56S
notes: Fab; constant domains as m1
Kd (human α-CGRP 1-37 (WT)): 5.69 nM
koff (human α-CGRP 1-37 (WT)): 0.000911 s⁻¹
Kd (rat α-CGRP (1-37)): 1510 nM
koff (rat α-CGRP (1-37)): 0.0272 s⁻¹
